In the RNAGym collection of RNA variant scans (doi:10.7554/elife.80360):

B1: CPEB3 Ribozyme (parent)
chain: GGGGGCCACAGCAGAAGCGUUCACGUCGCGGCCCCUGUCAGAUUCUGGUGAAUCUGCGAAUUCUGCUGU

Variants of: B1
Assay: self-cleavage, relative activity (ratio to wild type); higher = more cleavage; co-transcriptional

Variant | self-cleavage
GGGGGCCACAGAAGAAGCGUUCACGUCGCGGCCCCUGUCAGAUUCUGGUGAAUCUGCUAAUUCUGCUGU | 0.843
GGGGGCCACAGAAGAAGCGUUCACGUCGCGGCCCCUGUCAGAUUCUGGUGAAUCUGCCAAUUCUGCUGU | 0.653
GGGGGCCACAGAAGAAGCGUUCACGUCGCGGCCCCUGUCACAUUCUGGUGAAUCUGCGAAUUCUGCUGU | 0.191
GGGGGCCACAGAAGAAGCGUUCACGUCGCGGCCCCUGUCAUAUUCUGGUGAAUCUGCGAAUUCUGCUGU | 0.286
GGGGGCCACAGAAGAAGCGUUCACGUCGCGGCCCCUGUCAGAUUCUGGUGAAUCUACGAAUUCUGCUGU | 0.502
GGGGGCCACAGAAGAAGCGUUCACGUCGCGGCCCCUGUCAGAUUCUGGUGAAUCUCCGAAUUCUGCUGU | 0.348
GGGGGCCACAGAAGAAGCGUUCACGUCGCGGCCCCUGUCAGAUUCUGGUGAAUCUUCGAAUUCUGCUGU | 0.296
GGGGGCCACAGAAGAAGCGUACACGUCGCGGCCCCUGUCAGAUUCUGGUGAAUCUGCGAAUUCUGCUGU | 0.642
GGGGGCCACAGAAGAAGCGUCCACGUCGCGGCCCCUGUCAGAUUCUGGUGAAUCUGCGAAUUCUGCUGU | 0.464
GGGGGCCACAGAAGAAGCGUUCACGUCGCGGCCCCUGUCAGAUUCUUGUGAAUCUGCGAAUUCUGCUGU | 0.876
GGGGGCCACAGAAGAAGCGUUCACGUCGCGGCCCCUGUCAGAUUCUCGUGAAUCUGCGAAUUCUGCUGU | 0.837
GGGGGCCACAGAAGAAGCGUUCACGUCGCGGCCCCUGUCAGAUUCUAGUGAAUCUGCGAAUUCUGCUGU | 0.875
GGGGGCCACAGAAGAAGCGUUCACGUCGCGGCCCCUGUCAGAUUCUGGUCAAUCUGCGAAUUCUGCUGU | 0.591
GGGGGCCACAGAAGAAGCGUUCACGUCGCGGCCCCUGUCAGAUUCUGGUUAAUCUGCGAAUUCUGCUGU | 0.738
GGGGGCCACAGAAGAAGCGUUCACGUCGCGGCCCCUGUCAGAUUCUGGUAAAUCUGCGAAUUCUGCUGU | 0.809
GGGGGCCACAGAAGAAGCGUUCACGUUGCGGCCCCUGUCAGAUUCUGGUGAAUCUGCGAAUUCUGCUGU | 0.117
GGGGGCCACAGAAGAAGCGUUCACGUAGCGGCCCCUGUCAGAUUCUGGUGAAUCUGCGAAUUCUGCUGU | 0.145
GGGGGCCACAGAAGAAGCGAUCACGUCGCGGCCCCUGUCAGAUUCUGGUGAAUCUGCGAAUUCUGCUGU | 0.0992
GGGGGCCACAGAAGAAGCGCUCACGUCGCGGCCCCUGUCAGAUUCUGGUGAAUCUGCGAAUUCUGCUGU | 0.132
GGGGGCCACAGAAGAAGCGGUCACGUCGCGGCCCCUGUCAGAUUCUGGUGAAUCUGCGAAUUCUGCUGU | 0.18
GGGGGCCACAGAAGAAGCGUUCACGUCGCGGCCCCUGUCAGAUUCGGGUGAAUCUGCGAAUUCUGCUGU | 0.628
GGGGGCCACAGAAGAAGCGUUCACGUCGCGGCCCCUGUCAGAUUCCGGUGAAUCUGCGAAUUCUGCUGU | 0.609
GGGGGCCACAGAAGAAGCCUUCACGUCGCGGCCCCUGUCAGAUUCUGGUGAAUCUGCGAAUUCUGCUGU | 0.125
GGGGGCCACAGAAGAAGCGUUCAGGUCGCGGCCCCUGUCAGAUUCUGGUGAAUCUGCGAAUUCUGCUGU | 0.138
GGGGGCCACAGAAGAAGCGUUCAUGUCGCGGCCCCUGUCAGAUUCUGGUGAAUCUGCGAAUUCUGCUGU | 0.302
GGGGGCCACAGAAGAAGCGUUCAAGUCGCGGCCCCUGUCAGAUUCUGGUGAAUCUGCGAAUUCUGCUGU | 0.236

Variant | self-cleavage
GGGGGCCACAGAAGAAGCGUUCACGUCGCGGCCCCUGUCAGAUUCUGGAGAAUCUGCGAAUUCUGCUGU | 0.893
GGGGGCCACAGAAGAAGCGUUCACGUCGCGGCACCUGUCAGAUUCUGGUGAAUCUGCGAAUUCUGCUGU | 0.553
GGGGGCCACAGAAGAAGCGUUCACGUCGCGGCGCCUGUCAGAUUCUGGUGAAUCUGCGAAUUCUGCUGU | 0.395
GGGGGCCACAGAAGAAGCGUUCACGUCGCGGCCCCUGUCAGAUUCUGGUGAAUCUGCGAAUUCUGCUCU | 0.842
GGGGGCCACAGAAGAAGCGUUCACGUCGCGGCCCCUGUCAGAUUCUGGUGAAUCUGCGAAUUCUGCUUU | 0.807
GGGGGCCACAGAAGAAGCGUUCACGUCGCGGCCCCUGUCAGAUUCUGGUGAAUCUGCGAAUUCUGCUAU | 0.843
GGGGGCCACAGAAGAAGCGUUCACGUCGCGGCCCCUGUCAGAUUCUGGUGAAUCUGGGAAUUCUGCUGU | 0.212
GGGGGCCACAGAAGAAGCGUUCACGUCGCGGCCCCUGUCAGAUUCUGGUGAAUCUGUGAAUUCUGCUGU | 0.317
GGGGGCCACAGAAGAAGCGUUCACGUCGCGGCCCCUGUCAGAUUCUGGUGAAUCUGAGAAUUCUGCUGU | 0.172
GGGGGCCACAGAAGAAGCGUUCACCUCGCGGCCCCUGUCAGAUUCUGGUGAAUCUGCGAAUUCUGCUGU | 0.127
GGGGGCCACAGAAGAAGCGUUCACGUCGCGGCCCCUGUCAGAUUCUGGUGAAUAUGCGAAUUCUGCUGU | 0.311
GGGGGCCACAGAAGAAGCGUUCACGUCGCGGCCCCUGUCAGAUUCUGGUGAAUGUGCGAAUUCUGCUGU | 0.392
GGGGGCCACAGAAGAAGCGUUCACGUCGCGGCCCCUGUCAGAUUCUGGUGAAUCUGCGAAUUGUGCUGU | 0.354
GGGGGCCACAGAAGAAGCGUUCACGUCGCGGCCCCUGUGAGAUUCUGGUGAAUCUGCGAAUUCUGCUGU | 0.346
GGGGGCCACAGAAGAAGCGUUCACGUCGCGGCCCCUGUUAGAUUCUGGUGAAUCUGCGAAUUCUGCUGU | 0.355
GGGGGCCACAGAAGAAGCGUUCACGUCGCGGCCCCUGUAAGAUUCUGGUGAAUCUGCGAAUUCUGCUGU | 0.228
GGGGGCCACAGAAGAAGCGUUCACGUCGCGGCCCCUGUCAGAUUCUGAUGAAUCUGCGAAUUCUGCUGU | 0.833
GGGGGCCACAGAAGAAGCGUUCACGUCGCGGCCCCUGUCAGAUUCUGCUGAAUCUGCGAAUUCUGCUGU | 0.771
GGGGGCCACAGAAGAAGCGUUCACGUCGCGGCCCUUGUCAGAUUCUGGUGAAUCUGCGAAUUCUGCUGU | 0.624
GGGGGCCACAGAAGAAGCGUUCACGUCGCGGCCCAUGUCAGAUUCUGGUGAAUCUGCGAAUUCUGCUGU | 0.149
GGGGGCCACAGAAGAAGCGUUUACGUCGCGGCCCCUGUCAGAUUCUGGUGAAUCUGCGAAUUCUGCUGU | 0.111
GGGGGCCACAGAAGAAGCGUUGACGUCGCGGCCCCUGUCAGAUUCUGGUGAAUCUGCGAAUUCUGCUGU | 0.129
GGGGGCCACAGAAGAAGCGUUCACGUCGCGGCCCCUGUCAGAUUAUGGUGAAUCUGCGAAUUCUGCUGU | 0.579
GGGGGCCACAGAAGAAGCGUUCACGUCGCGGCCCCUGUCAGAUUGUGGUGAAUCUGCGAAUUCUGCUGU | 0.614
GGGGGCCACAGAAGAAGCGUUCACGUCGCGGCCCCUGUCAGAUUCUGGUGAAUCUGCGAAUUCUUCUGU | 0.932
GGGGGCCACAGAAGAAGCGUUCACGUCGCGGCCCCUGUCAGAUUCUGGUGAAUCUGCGAAUUCUACUGU | 0.887

Variant | self-cleavage
GGGGGCCACAGAAGAAGCGUUCACGUCGCGGCCCCUGUCAGAUACUGGUGAAUCUGCGAAUUCUGCUGU | 0.349
GGGGGCCACAGAAGAAGCGUUCACGUCGCGGCCCCUGUCAGAUCCUGGUGAAUCUGCGAAUUCUGCUGU | 0.343
GGGGGCCACAGAAGAAGCGUUCACGUCGCGGCCCCUGUCAGAUGCUGGUGAAUCUGCGAAUUCUGCUGU | 0.55
GGGGGCCACAGAAGAAGCGUUCACGUCGCGGCCCCUGUCAGAGUCUGGUGAAUCUGCGAAUUCUGCUGU | 0.207
GGGGGCCACAGAAGAAGCGUUCACGUCGCGGCCCCUGUCAGACUCUGGUGAAUCUGCGAAUUCUGCUGU | 0.453
GGGGGCCACAGAAGAAGCGUUCACGUCGCGGCCCCUGUCAGAAUCUGGUGAAUCUGCGAAUUCUGCUGU | 0.259
GGGGGCCACAGAAGAAGCGUUCACGUCGCGGCCACUGUCAGAUUCUGGUGAAUCUGCGAAUUCUGCUGU | 0.448
GGGGGCCACAGAAGAAGCGUUCACGUCGCGGCCGCUGUCAGAUUCUGGUGAAUCUGCGAAUUCUGCUGU | 0.495
GGGGGCCACAGAAGAAGCGUUCACGUCGCUGCCCCUGUCAGAUUCUGGUGAAUCUGCGAAUUCUGCUGU | 0.212
GGGGGCCACAGAAGAAGCGUUCACGUCGCAGCCCCUGUCAGAUUCUGGUGAAUCUGCGAAUUCUGCUGU | 0.322
GGGGGCCACAGAAGAAGCGUUCACGUCGCGGCCCCCGUCAGAUUCUGGUGAAUCUGCGAAUUCUGCUGU | 0.441
GGGGGCCACAGAAGAAGCGUUCACGUCGCGGCCCCUGGCAGAUUCUGGUGAAUCUGCGAAUUCUGCUGU | 0.235
GGGGGCCACAGAAGAAGCGUUCACGUCGCGGCCCCUGUCAGAUUCUGGUGAAUCUGCGAAUUCUGAUGU | 0.686
GGGGGCCACAGAAGAAGCGUUCACGUCGCGGCCCCUGUCAGAUUCUGGUGAAUCUGCGAAUUCUGGUGU | 0.561
GGGGGCCACAGAAGAAGCGUUCACGUCCCGGCCCCUGUCAGAUUCUGGUGAAUCUGCGAAUUCUGCUGU | 0.164
GGGGGCCACAGAAGAAGCGUUCACGUCUCGGCCCCUGUCAGAUUCUGGUGAAUCUGCGAAUUCUGCUGU | 0.141
GGGGGCCACAGAACAAGCGUUCACGUCGCGGCCCCUGUCAGAUUCUGGUGAAUCUGCGAAUUCUGCUGU | 0.126
GGGGGCCACAGAAGAAUCGUUCACGUCGCGGCCCCUGUCAGAUUCUGGUGAAUCUGCGAAUUCUGCUGU | 0.0724
GGGGGCCACAGAAGAACCGUUCACGUCGCGGCCCCUGUCAGAUUCUGGUGAAUCUGCGAAUUCUGCUGU | 0.139
GGGGGCCACAGAAGAAACGUUCACGUCGCGGCCCCUGUCAGAUUCUGGUGAAUCUGCGAAUUCUGCUGU | 0.187
GGGGGCCACAGAAGAAGCGUUCACGUCGCGGUCCCUGUCAGAUUCUGGUGAAUCUGCGAAUUCUGCUGU | 0.79
GGGGGCCACAGAAGAAGCGUUCACGUCGCGGGCCCUGUCAGAUUCUGGUGAAUCUGCGAAUUCUGCUGU | 0.118
GGGGGCCACAGAAGAAGCGUUCACGUCGCGGACCCUGUCAGAUUCUGGUGAAUCUGCGAAUUCUGCUGU | 0.402
GGGGGCCACAGAAGAAGCGUUCACGCCGCGGCCCCUGUCAGAUUCUGGUGAAUCUGCGAAUUCUGCUGU | 0.5
GGGGGCCACAGAAGAAGCGUUCACGUCGUGGCCCCUGUCAGAUUCUGGUGAAUCUGCGAAUUCUGCUGU | 0.135
GGGGGCCACAGAAGAAGCGUUCACGUCGGGGCCCCUGUCAGAUUCUGGUGAAUCUGCGAAUUCUGCUGU | 0.105
